Data published in the DeepSol protein solubility set.

Test: soluble on expression in E. coli; label from the status in PepcDB or PDB records

Sequence	soluble on expression in E. coli
PVMHPHGAPPNHRPWQMKDLQAIKQEVSQAAPGSPQFMQTIRLAVQQFDPTAKDLQDLLQYLCSSLVASLHHQQLDSLISEAETRGITSYNPLAGPLRVQANNPQQQGLRREYQQLWLAAFAALPGSAKDPSWA	soluble
MIGGLFIYNHKGEVLISRVYRDDIGRNAVDAFRVNVIHARQQVRSPVTNIARTSFFHVKRSNIWLAAVTKQNVNAAMVFEFLYKMCDVMAAYFGKISEENIKNNFVLIYELLDEILDFGYPQNSETGALKTFITQQGIKSQHQTKEEQSQITSQVTGQIGWRREGIKYRRNELFLDVLESVNLLMSPQGQVLSAHVSGRVVMKSYLSGMPECKFGMNDKIVIEKQGKGTADETSKSGKQSIAIDDCTFHQCVRLSKFDSERSISFIPPDGEFELMRYRTTKDIILPFRVIPLVREVGRTKLEVKVVIKSNFKPSLLAQKIEVRIPTPLNTSGVQVICMKGKAKYKASENAIVWKIKRMAGMKESQISAEIELLPTNDKKKWARPPISMNFEVPFAPSGLKVRYLKVFEPKLNYSDHDVIKWVRYIGRSGIYETRC	soluble
MRIVVISLFLFSGVFGRASREAEKKQDTVACGELRDEYVRVCTGANTKRREQKDKDFCNAFENICFSIPEGEPDKAKDAEVTGPRTAAISPESAAAVRGETTGSAHKKTNFARFCKEFKNQYLYVCPDPFRFGQKAIVFCPVYSEKCHVPLPDKPVIPQRKSHRKRGPGGAVNQLCRSYQGFAMNYCNNPILTAQSQYRTACDKYWRFCGKFHQQG	not soluble
GSHMLEVLTQKHKPAESQQQAAETEGSCNKKDQNECKSPCKWHNDAENKKCTLDKEEAKKVADETAKDGKTGNTNTTGSS	soluble
MNEKHPGPLVVSGKLSDGERMKSESNFLRGTIAEDLNNGLTGGFSGDNFLLIRFHGMYQQDDRDIRAERAEQKLEPRHAMMLRCRLPGGIITPQQWLGIDKFAADNTLYGSIRITNRQTFQFHGILKGNVKPAHQLLNELGLDALATANDVNRNVLCTSNPVESALHQEAYEWAKKISEHLLPRTRAYAEIWLDAEKVATTDEEPILGATYLPRKFKTTVVIPPQNDVDLHANDLNFVAVADKGKLIGFNVLVGGGLSIAHGDKNTYPRKASEFGYIPLKHTLAIAEAVVTTQRDWGNRTDRKNAKTKYTLERVGVETFKAEVEKRAGVSFSAIKPYQFIGRGDRIGWVKGVDKKWHLTLFVENGRLLDYPGRSLKTGVAEIAKIHQGDFRLTANQNLIVAGVPEKDKARIEALAREHGLMDDNVTSQRENSMACVSFPTCPLAMAEAERFLPEFVTRVEGILQQHGLADEHIVLRVTGCPNGCGRALLAEVGLVGKAVGRYNLHLGGNREGTRIPRMYRENITADEILLITDQLVGRWAKERHVDEGFGDFVIRAGVIAPVIDSARDFYDVQEAM	not soluble
MEKIIVRGGKRLNGTVRVEGAKNAVLPIIAAALLASDGKNVLSEVPVLSDVYTINEVLRHLNAEVVFENNQVTIDASKELNIEAPFEYVRKMRASVQVMGPLLARNGRARIALPGGCAIGSRPIDQHLKGFEAMGAKVQVGNGFVEAYVEGELKGAKIYLDFPSVGATENIMSAATLAKGTTILENAAKEPEIVDLANFLNAMGAKVRGAGTGTIRIEGVDKLYGANHSIIPDRIEAGTFMVAAAITGGDILIENAVPEHLRSITAKMEEMGVKIIEENEGVRVIGPDKLKAVDIKTMPHPGFPTDMQSQMMALLLQADGTSMITETVFENRFMHVEEFRRMNADIKIEGRSVIMNGPNSLQGAEVGATDLRAAAALILAGLVSEGYTRVTELKHLDRGYVDFHKKLAALGATIERVNEKVEEVKEQEVSDLHA	not soluble
MSVKTWRKIAIDIIRDFDHNIMPLFGNPKASETISISPSGDETKVVDKVAENIIISKFKDLGVNVVSEEIGRIDQGSDYTVVVDPLDGSYNFINGIPFFAVSVAIFHEKDPIYAFIYEPIVERLYEGIPGKGSYLNGEKIKVRELAEKPSISFYTKGKGTKIIDKVKRTRTLGAIALELAYLARGALDAVVDIRNYLRPTDIAAGVVIAREAGAIVKDLDGKDVEITFSATEKVNIIAANNEELLETILRSIEK	soluble
MFQPEKIDPEEATAAIAEVAYIVTVSDYIGNVIRSLYPQASPKLRTIYSVVDSERFLPGNHPKMQKIRNDIRRAHGLENKTVILFAGRLSRNKGVDKLILALPELAKKFKNLALVIVGSNWFSENDITDYVAYVRALAKRMPVPVVTTGFVPPNEIQNWFAAADLFVCTSQWQEPLARVHYEAMAAGLPIVTTARGGNPEVIFANENGLIVENPEDPSDFANKIAQILSDQSLMRRMGEKGRQLAISIYHWERVASELLEVWEQAEKTEQAVVSEEQAAGMTIEPLKEDATEQLNGPTPKADAKEKVHSKKNAAASSNKTKKGKAKKERAISMEDHQQTAKQKEAAAERTELAKSAPAPKQPQTGRHIKPFTIASGNQQTLDASPKTHLNRKLAQAKHDTKHFTIASSH	not soluble
MYLAYYGFAEKPFQLKPDPNFFFPSRGHKRAAAYLEYGLSQEDGFIIITGDVGAGKTTLMRYLFQKLRQERVAAAQLVSTRLDPDDALRMVAAAFGLSYEGLSKAALLLELERFMRKCERESTRVLLVVDEAQNLLPQTLEELRMLSNFQSDNRPLLQTFLLGQPEFRRTLLGSQMQQLRQRVIATYHLGPLDQAETRAYIEHRLQKAGWNGSPVLQDEIFEVIHNFSAGIPRKINLFCDRLLIMGCLEELQTLGKAEANEVMLDIQKEFDLAVSPELEHHHHHH	soluble
RQSVQTVLPESTGNNTLSLRDSVCRDLFQLFSSPHSPLPILLVSGMPEWQGHNQSDKLLQSWYCRQLRSALLFHEPRIAALQVNLKEAYCHELAISLEMMLYHDDEPLTFDLVWQKG	not soluble
SLRILPQEPVIREEQNWLTILKNAISDPKLLLKALNLPEDDFEQSIAARKLFSLRVPQPFIDKIEKGNPQDPLFLQVMCSDLEFVQAEGFSTDPLEEKNANAVPNILHKYRNRLLFMAKGGCAVNCRYCFRRHFPYDENPGNKKSWQLALDYIAAHSEIEEVIFSGGDPLMAKDHELAWLIKHLENIPHLQRLRIHTRLPVVIPQRITDEFCTLLAETRLQTVMVTHINHPNEIDQIFAHAMQKLNAVNVTLLNQSVLLKGVNDDAQILKILSDKLFQTGILPYYLHLLDKVQGASHFLISDIEAMQIYKTLQSLTSGYLVPKLAREIAGEPNKTLYAE	soluble
MTGQSTGTGEYSDFVAVFRDRYEKLAGKLRGRVNHRPTDAIENMGGGSDAALIGMVSDIRSTASGHWLVELEDTNGTFPCLVMKDRPIADLVQQLLMDEVIAVEGTLADDAGILFVDSLYFPDVPRTHNPSTADRHVQAALISDVHVGSQEFMEDAWHRFTDWLHTPEAEHVEYLLIAGDMVEGVGIYPEQDKELDIIDIYDQYRAFSEYLKEVPADMEIRMIPGNHDAVRLAEPQPGFDEELRDIMSAHDAQVHSNPSLVTVEGVTVLMYHGVSLDEVIAELPDEEASYEEPHRAMYQLLKKRHVAPQYGGHTRLAPEDRDYLVMEEVPDVFHTGHVHKLGWGEYHNVVALNSGCWQAQTEFQKSVNIDPDAGFAPILDLDTLEMTVRKFS	not soluble
